The record followed here is patent US20100216191A1, “Method for Manufacturing a Modified Peptide” (PROCOMCURE BIOTECH GMBH, priority 2007, published 2010).

In assay [1] the target is ClfB (clumping factor B of S. aureus, NCBI Protein GI 15925620) (Staphylococcus aureus), Q99R07. The assay is described as follows: cell-based or functional assay.
The target of assay [2] is His-tagged recombinant ClfB protein (Staphylococcus aureus). The assay is described as follows: pull-down competition on His-tagged ClfB beads, anti-GST Western blot, densitometry; competes with GST-tagged Frag2-CDS. For orientation: Immunoblotting shows a protein as a band on a membrane.

ClfB (clumping factor B of S. aureus, NCBI Protein GI 15925620) (Staphylococcus aureus), Q99R07, sequence (Q99R07 45-841 limits assumed): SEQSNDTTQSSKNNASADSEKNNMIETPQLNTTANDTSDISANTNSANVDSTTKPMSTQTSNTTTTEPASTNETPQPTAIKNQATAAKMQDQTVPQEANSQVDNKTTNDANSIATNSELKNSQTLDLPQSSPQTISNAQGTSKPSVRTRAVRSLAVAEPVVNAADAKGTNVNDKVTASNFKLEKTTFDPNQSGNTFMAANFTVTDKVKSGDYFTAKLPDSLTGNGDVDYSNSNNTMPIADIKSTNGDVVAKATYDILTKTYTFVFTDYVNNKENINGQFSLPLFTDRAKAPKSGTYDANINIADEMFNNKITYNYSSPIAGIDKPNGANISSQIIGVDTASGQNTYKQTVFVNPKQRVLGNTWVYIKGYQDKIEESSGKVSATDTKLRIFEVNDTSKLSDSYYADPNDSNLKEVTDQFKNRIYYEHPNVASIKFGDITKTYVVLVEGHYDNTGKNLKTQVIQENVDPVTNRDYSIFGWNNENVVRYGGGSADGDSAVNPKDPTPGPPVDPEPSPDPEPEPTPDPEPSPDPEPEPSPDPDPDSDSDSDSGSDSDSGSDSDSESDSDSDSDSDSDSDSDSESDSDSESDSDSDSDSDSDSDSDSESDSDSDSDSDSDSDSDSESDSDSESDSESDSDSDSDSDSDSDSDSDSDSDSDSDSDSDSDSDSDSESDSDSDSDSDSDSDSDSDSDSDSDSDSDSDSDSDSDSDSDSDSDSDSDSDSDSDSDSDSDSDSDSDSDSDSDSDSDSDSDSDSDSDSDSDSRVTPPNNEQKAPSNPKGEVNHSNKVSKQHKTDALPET

B1: stronger binder (peptide SEQ ID NO 97) (peptide)
peptide: YSLGSSFGSGAGSSSLGRTSSSRAVVVK
modifications: not checked
For the molecule B1, the beta-galactosidase expression (X-Gal beta galactosidase overlay assay, Y2H) (% more than the original binder) in assay [1] is over 50.

B2: IPEP-21SA (synthetic peptide of 21 amino acids) (peptide)
peptide: SYSLGSSFGSGAGSSSFSRTS
modifications: not checked
As to B2, the percent inhibition of the binding of GST-tagged keratin fragment to ClfB-protein at 1 µM peptide in assay [2] is 40%.

B3: more stronger binder (peptide SEQ ID NO 73) (peptide)
peptide: YSLGSSFGSGAGSSSSSRTSPSRAVVVK
modifications: not checked
As for B3, the beta-galactosidase expression (X-Gal beta galactosidase overlay assay, Y2H) (% more than the original binder) in assay [1] was over 100.
